Results from the DeepSol protein solubility set.

Assay: soluble on expression in E. coli; label from the status in PepcDB or PDB records

Sequence | soluble on expression in E. coli
MSLGKYFGTDGVRGVANTELTPELAFKLGRIGGYVLTKDKENPKVLIGRDTRISGEMLEGALVAGLLSIGVEVMRLGVISTPGVAFLTKAVSASAGVMISASHNPVADNGIKFFGPDGFKLLDEQEKEIETLLDQEDALPRPTGADLGQANDYFEGAQKYLQFLKQTVDEDFTGIHIALDCANGAASSLAPHLFADLEADISTMGTSPNGKNINDGVGSTHPEALAAFVNAKNADIGLAFDGDADRLIAVDEKGNIVDGDKILYICAKYMKEKGLLKQQTLVTTVMSNLGLYKALEALQIDTKQTAVGDRYVMEEMRKGGYNLGGEQSGHIIFLDHITTGDGMLSALQLVNIMKQTGKKLSELAEEWETFPQTLVNIRVTDKHAVTDNEKVPAVIKEVEQEMNGEGRVLVRPSGTEPLVRIMVEAKTEELCDAFVNKIADVVKAELGQEEGHHHHHH | soluble
MSSNLIRFVGNHDIASEGKFLFEILSQLRNFGVGRLVTKNEWTRKWPNNPSYMKILRAEPGMDRWLFEGKVYAEWVFRGKNLGVYEFSKDLNRSDWQLVHKHQEKSYTSSTTPMQDLVLPDSFPLPPLQVHLSQKSARKNGLDEKTVSRRAPLTLSVDPEFQHLKPFIKQEAPSTKSVSIYEEVDKNALLDLYGNELPVKVEAWNAGPAMFQPRFNATTMRVEEQPPK | not soluble
MTKYIFVTGGVVSSLGKGITAASLGRLLKNRGLNVTIQKFDPYINVDPGTMSPYQHGEVFVTDDGAETDLDLGHYERFIDINLNKYSNVTTGKIYSSVLQKERRGEYLGGTVQVIPHITNEIKERVYRSGRETNADVVITEIGGTVGDIESLPFLEAIRQIKSDIGRDNVMYIHCTLIPYLKAAGEMKTKPTQHSVKELRSLGIQPNIIVVRTEMPVSQDMKDKLALFCDIDTKAVIEARDADTLYAVPLSLQEQNMDQIVCDHLKLDNPAADMTEWTALVEKVRNLSKKTKIALVGKYVELQDAYISVVEALRHAGYSFDTDVEVKWVNAEHVTAENVQELVGDTDGILVPGGFGDRGVEGKIVAIQYARENKVPFLGICLGMQLASIEFARNVLGLEGANSSEINPDTPYAIIDLLPEQKDVEDLGGTLRLGLYPCKLSEETNAYNAYNEPVVYERHRHRYEFNNQFRPDMEKAGFVFSGTSPDGRLVEIIELKDHPWFVAAQFHPELVSRPNRPQPLFHDFVKASLTNKESK | not soluble
MPLPPHLSDRVVALQPSLTLAISARAKALQQEGRDICSLSAGEPDFNTPEFIIDATVKALRDGITRYGPAAGDPELREAIATKLSKENTVPTNAEQVLVTNGGKQAIFNLFQVILNPGDEVLIPAPYWLSYPEMARLAGAKVTTLPSTPENGFCLDLNNLEASIGPKTRLLLLNSPGNPTGRVMARKELETLADLLRDHPQILVMSDEIYEFILEEGQQHYSFSAIAPDLSNRTFIVNGFAKGWAMTGWRLGYLAGPADAVKAATALQSQSTSNVCSFAQRGALAALQGSRECVKKMVKSYNTRRELLTSGLLSLEGMSLVPPKGAFYAFPKLPPESLDSVSFCEQALENHGLAMVPGAAFGDDSCVRLTCAVSPETICDGLERLRKALKQS | not soluble
MGSDKIHHHHHHMQPPLTDKQFKHTIDYDSRLLPYKYYHTCVMDGIPDILFHWHNEFEINYVYGGTARYHIDYDYFNSQAGDIILIRPNAAHSIHPIEQRGHETDTLLFHLDMLGASQLDHTSMLYLQPLQTDVFKCILRIQPQDPGYAEIRQCLLTIFELVRHQPPYFELPLKSRLFDFFYLLYRYRYIVRKNTDDMYRKNEKLRLLIEHIQQHYAENLTIEQLAEQMGYTKTHFMTIFKQQTGTSCMEFIIQVRLRAATELLTNTLKPVLEIATEVGFNNLSNFNRQFKQYYHTTPSSYRKQLRKNRTYTNFDK | not soluble
MTARAIIIGAPRSGSGKTSVTIGLLRAFARRGVKVRGIKTGPDYIDPGFHAFATGTPGLNLDSWAMQPDLLRHLFSQQTEDAELILIESAMGLFDGIPVAENRTGSAADLARLFRIPVLLVLDVSGQSQTAATIAHGFAHYDPDVTMGAVVLNRAGSERHRTLCTEAIEKIGLPVVGCVLRDPSLILPERHLGLVQASEHPEIDPHIDRLADAMEKSIDLDTLFSLAAPVDMPCGSVAAAIAPPGQRIALAEDAAFTFLYPHLRRHWRAAGAEIVPFSPLADEAPDESCDICWLPGGYPELFAGKLADAVGFKAGITRFAETKPVHGECGGYMVLGERLEDAEGVIHAMTGLLSHATSFATRKMNLGYRQATIAADSPLGMAGDVLRGHEFHYARVIDPGRDQPFAHMADGQGRPLGPSGGRRGFVSGTFFHAIAKGGLEHHHHHH | not soluble
MGSDKIHHHHHHMDIKVITRHAPSNYGSLLQSIATITTLERLGHKCEIIDYIRDDEHGLSAVKTNLNNKQRWSGNSLKKLAYIVLRYPEEKKAELNFREMRRKYLKLTQLCRTHDDLKRLDADIFMTGSDQVWGPTLNGHYDEAYFLSFVKDKRKIAYAASLGRTDFTAKILSEYKKLLSSYSGIAVRENTAVGLLRQMDIECAGQVLDPTLLLTGDEWSRMIKKDMGGKYVLVYQLHNNPALSKYAVRFAEHVGLPLYRVSPTFHQIRRGGKFIYLPDLPDFLSYIKNSTYFITDSFHGTAFALNFNRQFIEILPNNKTGNRNQSILQLTRLQDRIVTDYADCSISERMIDYERVNDILRKERIRSLGILKQLLRQ | not soluble
MKILTIDTSTSTCSAALSIDGRCAGEYLLEAERHPSERLLAAVDILLRDTGMELEELDGFGVALGPGSFTGVRIGVATVKGLALATGKPAVGFSSLAMLALNLPWSLLPVCTLFDARKKEVYGGLYRVTSAPEPVIVDRVAPPERFLEAIEGEAIFVGDGAIRYREAIESILGHRAFFAPAHCHQPRASAGALLAGELLRTGAAVPLPLLNPTYIRPSEAELARMCQKAVAAALEHHHHHH | not soluble
MSLDLMTKLKIYNGEEIVEKASIKKIEREELEEECRQKEGMTGVSTRFIIKAINNAICESNCSCINPIDVINSLITAVKEKDLCEEVEDKYISFLEDVVRKEYNKILYKEITKFFIESFNSQGEALFNNYLDHAEAYVNKVYLKDNITGENLDPDEEFMREIEEEIGVTENSSKGFRKDVVAYILYLIRKGEEINCNCYKPLKEAIERKLISSSREISRIINPSKIRNKAQDEKYKFIVEKLKNNGYCDTCAFYTLRYAANNFWRDEGHHHHHH | not soluble
MVLPKKEFVLSHTFTDVSKMEKDISVFSPGEEHFNVSWNMSISCEGDHLGVFLHCHKSRGKETMWTIDTEHQFTLKTSSGKAYREDDNFNFQFSNAHSYGNGTTEFISWNKLIKDYLIDDVITVEAAVKIIKTTGISKKALKGFEKSNEEFSDVVLAVGDKEFFVLKQFLAYHSSYFKSLLLGKFAESDQKEVTLQDIDPTDFQNLLEVLYGEPAIDDETIDGILHLAHMYDMSVPLRKCEEFLINESEKSMKDQLKIAKQYQLEKLKKACLLKINTVDEIKAAVAGKLSDMDPTVVAALF | not soluble
MSLSVKRVLRNTIRKEKEENRVTEPLTETPELSAKYAWFFDLDGTLAEIKPHPDQVVVPDTILQGLQLLATASDGALALISGRSMVELDALAKPYRFPLAGVHGAERRDINGKTHIVHLPDAIARDISVQLHTVIAQYPGAELEAKGMAFALHYRQAPQHEDALMTLAQRITQIWPQMALQQGKCVVEIKPKGTSKGEAIAAFMQEAPFIGRTPVFLGDDLTDESGFAVVNRLGGMSVKIGTGATQASWRLAGVPDVWSWLEMITTALQQKRENNRSDDYESFSRSIEGHHHHHH | soluble
VTSSLPTVQRVIQNALEVSQLKYSQHPRPGGAPPALIVELPGERKLKINTILSVGEHSVRVEAFVCRKPDENREDVYRFLLRRNRRLYGVAYTLDNVGDIYLVGQMALSAVDADEVDRVLGQVLEVVDSDFNALLELGFRSSIQREWQWRLSRGESLQNLQAFAHLRPTTMQSAQRDEKELGG | soluble
MASYKQNLPPSALIKQQVNVADKKSKAEVQRDRQLEEDRKAGTAPAMVDVQTGRDINPHIPMFISQNPWYVPSEGPTLKHQRPHEEREKKMTQIHEWYQKGTTGKSATKFRKGACENCGAMGHQKRDCFDRPRKSNAKETNDNIAEDDYVQPNLTLGFDAKRDRWNGYDPSTHKQVIEDYEHLEEARKVVREHEMKEGEVEPATTEDGAPKDEDMYAEDADMAGVSVDMDSRTRITVRNLRIREDTAKYLYNLAENSPYYDPKSRSMRENPFAGVAGKELEAARFSGDNFVRYSGEVTAANEAQVFAWQATRGGVYAHSIAEPTKLEALKKEYEKEKSTLKNETQKELLDKYGGGEHMERPADELLLAQTESYIEYNRKGKVIKGKEKVAISSRFKEDIYPQNHTSVFGSFWREGRWGYKCCHQFVKNSYCTGKQGIEAETSAAKGTTTSNEEIFKVPKLVEKTEVKEEKEKEDSIKDEVAEENSDNDNDEEKEKVSEKSISPSPPSDDEEKEKEREKERLIEKERRERDQRRRDKKREKRERKKAKLGKRKRRHRDSDDESDPSSGSGSESDSDEEMRKAMKKAKREKAEGMKAAREGDRGRKYNTDYSNTAPNEKEMEAYRVTSVHSADPMAAYMNSKFEKKHTK | not soluble
GAMGNICNSGGVSRTYSPPTSPVYGSGVSSPSRFVGQYTLTSIHQLSSEERENFLDAHDPMRVYDLNSETSVYRTTQREYVRNGYATGNPNSGAIIALHEELQESPYAQHIGARPDQADAYRPRTAHVSSLNTPSLNVMAGQGALSALRGYAGSDHVTTEMRLGDFLDQGGKVYSDTSAMSAGGDSVEALIVTLPKGRKVPVNILD | soluble
PGRFALVFKDVTDRRRSEEALRESEAMFRSLTEAMPQLVWSARPDGSCDFFNRRWTDCTGASTEMAMGDGWRAFYHPDDQPAIDRLWPKALRTGEHYEIEYRLRHRDGSYRWMLGRGVPVRDEAGGILRWMGTCTDIH | not soluble
MGSDKIHHHHHHMAAKPPLTLYLAAPRGFCAGVDRAIKIVEMALEKWGAPVYVRHEIVHNKFVVDGLRDKGAVFVEELEECPDDRPVIFSAHGVPKSVPAAAEARQMVYVDATCPLVSKVHIEAQRHAEAGLQMIMIGHKGHPETVGTMGQLPEGEVLLVETVEDVAQVEVRDPERLAFVTQTTLSVDDTKDIVAALQARFPAIVGPHKEDICYATTNRQEAVKEVAPKADALLVVGAPNSSNSRRLVEVGAKNGCSYAQLVQRAENIDWRALEGIQSIAITAGASAPELLVNEVIDAFRDRYEVTVELVETAVERVEFKVPRVLRTA | not soluble
MKFEAIAVEKIPLIHEGDNLPSIICEKIGLQDRDIMIIASTIVAKAEGEIFRLEDITPGEEALEIAARTGKDPRFIQAVLSKSREVFVETPFMLVTTLAGHTCVNAGIDESNIENGFLLYPPENPDASALKIGKELEKLSGKKLSIIITDTNGRAFKIGQTGVAIGIYNIKPVKRWIGEKDLFGKVLEITEQAIADELAGAANLLMGEGAGGIPVVIIRGLDYYCEGDTSIKESYRPENMDVIKQGLRCLRNKK | not soluble
INAGTDLDNPKDLEVSDPTETTLSLRWRRPVAKFDRYRLTYVSPSGKKNEMEIPVDSTSFILRGLDAGTEYTISLVAEKGRHKSKPTTIKGSTVVGSPKGISFSDITENSATVSWTPPRSRVDSYRVSYVPITGGTPNVVTVDGSKTRTKLVKLVPGVDYNVNIISVKGFEESEPISGILKTALDS | soluble
WVQPITAQKPSLTLWLDDKMFTGLINTGADVTIIKLEDWPPNWPITDTLTNLRGIGQSNNPKQSSKYLTWRDKENNSGLIKPFVIPNLPVNLWGRDLLSQMKIMMAS | soluble
GSHVFKSRLQEYAQKYKLPTPVYEIVKEGPSHKSLFQSTVILDGVRYNSLPGFFNRKAAEQSAAEVALRELAK | soluble
MAAFEYKALDAKGKQKKGTIEGDNARQVRQRLKEQGMIPVEVVEAKAKAAKSSGSVGFKRGIKTAELALITRQLSTLVQSGMPLEECLRAVSEQAEKPRIRTMIAAVRSKVTEGYPLADSLGDYPHVFDELFRSMVAAGEKSGHLDTVLERLAEYVENRQKMRSKLLQA | not soluble
